The values below are quoted from earlier work in patent publication US20040063697A1, “Compositions of cyclooxygenase-2 selective inhibitors and thrombolytic agents for the treatment or prevention of a vaso-occlusive event” (priority 2002, published 2004).

For data set [1], the target named is plasminogen (Homo sapiens, UniProt P00747).
Assay in data set [2]: not given
This is another data set of the same source.

Sequence of plasminogen (P00747 20-810 limits assumed): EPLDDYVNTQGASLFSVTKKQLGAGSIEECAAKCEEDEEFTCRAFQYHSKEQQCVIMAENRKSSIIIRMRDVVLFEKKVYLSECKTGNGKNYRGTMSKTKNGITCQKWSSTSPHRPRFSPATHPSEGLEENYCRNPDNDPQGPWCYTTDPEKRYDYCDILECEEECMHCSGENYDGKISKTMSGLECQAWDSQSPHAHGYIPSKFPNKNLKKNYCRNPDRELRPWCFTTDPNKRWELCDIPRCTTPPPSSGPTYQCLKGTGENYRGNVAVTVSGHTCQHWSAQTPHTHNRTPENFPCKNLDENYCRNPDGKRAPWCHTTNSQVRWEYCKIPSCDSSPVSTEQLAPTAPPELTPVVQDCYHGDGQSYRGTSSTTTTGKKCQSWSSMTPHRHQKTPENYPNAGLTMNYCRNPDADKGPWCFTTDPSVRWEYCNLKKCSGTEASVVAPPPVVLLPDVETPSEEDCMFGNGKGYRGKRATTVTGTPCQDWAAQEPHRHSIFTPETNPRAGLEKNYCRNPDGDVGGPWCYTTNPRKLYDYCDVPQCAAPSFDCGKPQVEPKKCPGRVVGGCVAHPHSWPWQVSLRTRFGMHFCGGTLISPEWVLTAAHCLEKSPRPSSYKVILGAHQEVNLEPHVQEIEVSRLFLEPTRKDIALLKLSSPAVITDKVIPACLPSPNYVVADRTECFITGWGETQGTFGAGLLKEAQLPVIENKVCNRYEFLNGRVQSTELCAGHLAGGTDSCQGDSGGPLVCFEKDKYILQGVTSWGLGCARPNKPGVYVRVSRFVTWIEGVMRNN

B1: Tenecteplase: human derivative of t-PA (protein, UniProt P00750 36-562, looked up, variant T103N N117Q K296A H297A R298A R299A)
Tissue-type plasminogen …: SYQVICRDEKTQMIYQQHQSWLRPVLRSNRVEYCWCNSGRAQCHSVPVKSCSEPRCFNGGTCQQALYFSDFVCQCPEGFAGKCCEIDTRATCYEDQGISYRGNWSTAESGAECTNWQSSALAQKPYSGRRPDAIRLGLGNHNYCRNPDRDSKPWCYVFKAGKYSSEFCSTPACSEGNSDCYFGNGSAYRGTHSLTESGASCLPWNSMILIGKVYTAQNPSAQALGLGKHNYCRNPDGDAKPWCHVLKNRRLTWEYCDVPSCSTCGLRQYSQPQFRIKGGLFADIASHPWQAAIFAAAAASPGERFLCGGILISSCWILSAAHCFQERFPPHHLTVILGRTYRVVPGEEEQKFEVEKYIVHKEFDDDTYDNDIALLQLKSDSSRCAQESSVVRTVCLPPADLQLPDWTECELSGYGKHEALSPFYSERLKEAHVRLYPSSRCTSQHLLNRTVTDNMLCAGDTRSGGPQANLHDACQGDSGGPLVCLNDGRMTLVGIISWGLGCGQKDVPGVYTKVTNYLDWIRDNMRP
On to B1, for which the “Method of Plasminogen Activation” value in data set [1] is recorded as “Direct”. Besides, where the note is “in vivo”, the Antigenicity entry is listed as “No”. The immune response result (when administered to a human) is “no immune response is elicited”. In data set [2] (in vivo), the Elimination result is “Hepatic” and the “Half-Life” value is 20 to 25 min. Further, the “plasma clearance time and half-life” value in data set [2] (in words) is “lower plasma clearance time and a longer half-life”.
